Results on three molecules are retold here after PMC8612989 (Environmental microbiology reports, 2021).

In data set [1] the target is Ayg1p chain-shortening enzyme (Aspergillus fumigatus, UniProt Q9UVV1). Kind of data set: T4HN production detected in yeast co-expressing alb1 and ayg1. The data set is classed as cell-based. The settings on record: S. cerevisiae INVSc1-npgA, YWA1 formed in the cell by Alb1p; 30 °C.
Data set [2] concerns O=C1C[C@H](O)Cc2cc(O)cc(O)c21. In words: purified protein. The settings on record: conditions not separately told (YWA1 assay: pH 6.0, 30 °C).
The target of data set [3] is T1, Arp1p with His-tag (Arp1p-HT), Arp1p dehydratase of Aspergillus fumigatus (Aspergillus fumigatus (strain B-5233)), O14434.
T1 chain: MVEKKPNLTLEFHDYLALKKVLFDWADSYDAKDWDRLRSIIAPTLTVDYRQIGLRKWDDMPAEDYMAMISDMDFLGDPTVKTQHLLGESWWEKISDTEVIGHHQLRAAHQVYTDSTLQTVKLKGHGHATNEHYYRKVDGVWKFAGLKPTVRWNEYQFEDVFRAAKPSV
In words: SEC. The settings on record: remark: other sources report otherwise.

In the case of `CC1(O)CC(=O)c2c(cc3cc(O)cc(O)c3c2O)O1` (stereo not shown) [YWA1], the “T4HN production detected in yeast co-expressing alb1 and ayg1” value in data set [1] was “co-transformed into yeast (S. cerevisiae INVSc1-npgA/pYES-alb1+p425-ayg1) and T4HN production was detected”.

On to “Arp1p (Arp1p-HT) dehydratase (Aspergillus fumigatus Af293)”, for which, in data set [2], the Km is 15.7 µM and the kcat was 2.7 s⁻¹.

B1: Arp1p with His-tag (Arp1p-HT), Arp1p dehydratase of Aspergillus fumigatus, O14434 1-168 (enzyme)
chain: MVEKKPNLTLEFHDYLALKKVLFDWADSYDAKDWDRLRSIIAPTLTVDYRQIGLRKWDDMPAEDYMAMISDMDFLGDPTVKTQHLLGESWWEKISDTEVIGHHQLRAAHQVYTDSTLQTVKLKGHGHATNEHYYRKVDGVWKFAGLKPTVRWNEYQFEDVFRAAKPSV
In data set [3], B1 yielded a stoichiometry N of 3.
